Test results taken from patent US20230414771A1, “PREPARATION AND USE OF IMMUNOSTIMULATORY CONJUGATED COMPLEXES FOR TARGETED DELIVERY AND ACTIVATION” (YAFEI SHANGHAI BIOLOGY MEDICINE SCIENCE & TECHNOLOGY CO., …, priority 2020, published 2023).
*1 amine or outer side, *2 acyl side, *3 side chain or, on linkers, in order; H or OH if unused. Where a SMILES comes first, the peptide text is derived from it. [ ]: non-standard residue; d: D form. The star is where a group is joined. ξ: configuration not given here. Doxorubicin(3'-N) = COc1cccc2c1C(=O)c1c(O)c3c(c(O)c1C2=O)C[C@@](O)(C(=O)CO)C[C@@H]3O[C@H]1C[C@H](N*)[C@H](O)[C@H](C)O1; Dovitinib(4-NH) = CN1CCN(c2ccc3nc(-c4c(N*)c5c(F)cccc5[nH]c4=O)[nH]c3c2)CC1; Thyronine(3,5,3'-I3) = N[C@@H](Cc1cc(I)c(Oc2ccc(O)c(I)c2)c(I)c1)C(=O)O; Mal(CH2CH2O)6CH2CH2CO = O=C1C=CC(=O)N1CCOCCOCCOCCOCCOCCOCCC(=O)*; X9 = O=C([C@@H](Cc1cc(I)c(Oc2ccc(O)c(I)c2)c(I)c1)N[*:1])[*:2]; Hexanoyl(6-maleimido) = O=C1C=CC(=O)N1CCCCCC(=O)*; Resiquimod = CCOCc1nc2c(N*)nc3ccccc3c2n1CC(C)(C)O; Propanoyl(3-maleimido) = O=C1C=CC(=O)N1CCC(=O)*; X1 = O=C1C=CC(=O)N1CCOCCOCCOCCC(=O)*; PABC = O=C(OCc1ccc(N[*:1])cc1)[*:2]; X3 = O=C1C=CC(=O)N1CCOCCOCCC(=O)*; PEG3 = NCCOCCOCCOCCC(=O)O; ξN = NC(=O)CC(N)C(=O)O

Assay: Water solubility test (observation and HPLC)
Type: physicochemical
Details: thermodynamic from solid
Procedure: The compounds prepared in accordance with the examples of the disclosure and the reference compounds C1, C2, C3 and C4 were lyophilized (−70° C.).

| SMILES | solubility [µg/mL] |
| --- | --- |
| CCOCc1nc2c(NC(=O)OCc3ccc(NC(=O)[C@@H](CC(N)=O)NC(=O)[C@H](C)NC(=O)[C@H](C)NC(=O)CCOCCOCCN4C(=O)C=CC4=O)cc3)nc3ccccc3c2n1CC(C)(C)O [QHL-005-Resiquimod] | > 10000 |
| CCOCc1nc2c(NC(=O)OCc3ccc(NC(=O)[C@@H](CC(N)=O)NC(=O)[C@H](C)NC(=O)[C@H](C)NC(=O)CCOCCOCCOCCN4C(=O)C=CC4=O)cc3)nc3ccccc3c2n1CC(C)(C)O [QHL-006-Resiquimod] | > 10000 |
| CCOCc1nc2c(NC(=O)OCc3ccc(NC(=O)[C@H](CC(N)=O)NC(=O)[C@H](C)NC(=O)[C@H](C)NC(=O)CCOCCOCCOCCOCCOCCOCCN4C(=O)C=CC4=O)cc3)nc3ccccc3c2n1CC(C)(C)O [QHL-008-Resiquimod] | > 10000 |
| C[C@@H](NC(=O)CCOCCOCCNC(=O)CCN1C(=O)C=CC1=O)C(=O)N[C@H](C)C(=O)N[C@H](CC(N)=O)C(=O)Nc1ccc(COC(=O)Nc2c(-c3nc4ccc(N5CCN(C)CC5)cc4[nH]3)c(=O)[nH]c3cccc(F)c23)cc1 [QHL-086 - Dovitinib] | > 20000 |
| CCOCc1nc2c(NC(=O)OCc3ccc(NC(=O)[C@H](CC(N)=O)NC(=O)[C@H](C)NC(=O)[C@H](C)NC(=O)CCOCCOCCNC(=O)CCN4C(=O)C=CC4=O)cc3)nc3ccccc3c2n1CC(C)(C)O [QHL-086-Resiquimod] | > 10000 |
| C[C@@H](NC(=O)CCOCCOCCNC(=O)CCN1C(=O)C=CC1=O)C(=O)N[C@H](C)C(=O)N[C@H](CC(N)=O)C(=O)Nc1ccc(COC(=O)Nc2nccc(-c3sc(C(C)(C)C)nc3-c3cccc(NS(=O)(=O)c4c(F)cccc4F)c3F)n2)cc1 [QHL-086-dabrafenib] | > 20000 |
| C[C@@H](NC(=O)CCOCCOCCOCCNC(=O)CCN1C(=O)C=CC1=O)C(=O)N[C@H](C)C(=O)N[C@H](CC(N)=O)C(=O)Nc1ccc(COC(=O)Nc2c(-c3nc4ccc(N5CCN(C)CC5)cc4[nH]3)c(=O)[nH]c3cccc(F)c23)cc1 [QHL-089 - Dovitinib] | > 20000 |
| C[C@@H](NC(=O)CCOCCOCCNC(=O)CCN1C(=O)C=CC1=O)C(=O)N[C@H](C)C(=O)N[C@H](CC(N)=O)C(=O)Nc1ccc(COC(=O)N2CC(C)(C)c3ccc(NC(=O)c4cccnc4NCc4ccncc4)cc32)cc1 [QHL-089-Motesani] | > 20000 |
| CCOCc1nc2c(NC(=O)OCc3ccc(NC(=O)[C@@H](CC(N)=O)NC(=O)[C@H](C)NC(=O)[C@H](C)NC(=O)CCOCCOCCOCCNC(=O)CCN4C(=O)C=CC4=O)cc3)nc3ccccc3c2n1CC(C)(C)O [QHL-089-Resiquimod] | > 10000 |
| C[C@@H](NC(=O)CCOCCOCCOCCNC(=O)CCN1C(=O)C=CC1=O)C(=O)N[C@H](C)C(=O)N[C@H](CC(N)=O)C(=O)Nc1ccc(COC(=O)Nc2nccc(-c3sc(C(C)(C)C)nc3-c3cccc(CS(=O)(=O)c4c(F)cccc4F)c3F)n2)cc1 [QHL-089-dabrafenib] | > 20000 |
| CC(C)C[C@H](NC(=O)[C@H](CC(N)=O)NC(=O)[C@H](C)NC(=O)[C@H](C)NC(=O)CCOCCOCCOCCNC(=O)CCN1C(=O)C=CC1=O)C(=O)Nc1c(-c2nc3ccc(N4CCN(C)CC4)cc3[nH]2)c(=O)[nH]c2cccc(F)c12 [QHL-090 - Dovitinib] ({Propanoyl(3-maleimido)-PEG3}-AANL-{Dovitinib(4-NH)}) | > 10000 |
| CCOCc1nc2c(NC(=O)OCc3ccc(NC(=O)C(CC(N)=O)NC(=O)[C@H](C)NC(=O)[C@H](C)NC(=O)CCOCCOCCOCCOCCNC(=O)CCN4C(=O)C=CC4=O)cc3)nc3ccccc3c2n1CC(C)(C)O (stereo partly shown) [QHL-092-Resiquimod] | > 10000 |
| CCOCc1nc2c(NC(=O)OCc3ccc(NC(=O)[C@H](CC(N)=O)NC(=O)[C@H](C)NC(=O)[C@H](C)NC(=O)CCOCCOCCOCCOCCOCCOCCNC(=O)CCN4C(=O)C=CC4=O)cc3)nc3ccccc3c2n1CC(C)(C)O [QHL-095-Resiquimod] | > 10000 |
| CCOCc1nc2c(NC(=O)OCc3ccc(NC(=O)[C@H](CC(N)=O)NC(=O)[C@H](C)NC(=O)[C@H](C)NC(=O)[C@H](CCC(=O)O)NC(=O)CCCCCN4C(=O)C=CC4=O)cc3)nc3ccccc3c2n1CC(C)(C)O [QHL-116-Resiquimod] ({Hexanoyl(6-maleimido)}-EAAN[PABC]-Resiquimod) | > 10000 |
| COc1cccc2c1C(=O)c1c(O)c3c(c(O)c1C2=O)C[C@@](O)(C(=O)CO)C[C@@H]3O[C@H]1C[C@H](NC(=O)[C@H](CC(C)C)NC(=O)[C@H](CC(N)=O)NC(=O)[C@H](C)NC(=O)[C@H](C)NC(=O)[C@@H](NC(=O)CCCCCN2C(=O)C=CC2=O)C(C)C)[C@H](O)[C@H](C)O1 [QHL-123-DOX] ({Hexanoyl(6-maleimido)}-VAANL-{Doxorubicin(3'-N)}) | > 2000 |
| CCOCc1nc2c(NC(=O)OCc3ccc(NC(=O)[C@H](CC(N)=O)NC(=O)[C@H](C)NC(=O)[C@H](C)NC(=O)CCCCCN4C(=O)C=CC4=O)cc3)nc3ccccc3c2n1CC(C)(C)O [QHL-140-Resiquimod] | > 10000 |
| CCOCc1nc2c(NC(=O)OCc3ccc(NC(=O)[C@H](CC(N)=O)NC(=O)[C@H](C)NC(=O)[C@H](C)NC(=O)CCOCCOCCOCCOCCOCCOCCOCCOCCOCCOCCOCCOCCN4C(=O)C=CC4=O)cc3)nc3ccccc3c2n1CC(C)(C)O [QHL-147-Resiquimod] | > 10000 |
| C[C@H](NC(=O)CCOCCOCCN1C(=O)C=CC1=O)C(=O)N[C@@H](C)C(=O)N[C@H](CC(N)=O)C(=O)N[C@@H](Cc1cc(I)c(Oc2ccc(O)c(I)c2)c(I)c1)C(=O)O [QHL-153-T3] (X3-AA[dN][Thyronine(3,5,3'-I3)]-OH) | > 10000 |
| C[C@H](NC(=O)CCOCCOCCOCCN1C(=O)C=CC1=O)C(=O)N[C@@H](C)C(=O)N[C@H](CC(N)=O)C(=O)N[C@@H](Cc1cc(I)c(Oc2ccc(O)c(I)c2)c(I)c1)C(=O)O [QHL-154-T3] (X1-AA[dN][Thyronine(3,5,3'-I3)]-OH) | > 10000 |
| C[C@H](NC(=O)CCOCCOCCOCCOCCOCCOCCN1C(=O)C=CC1=O)C(=O)N[C@@H](C)C(=O)N[C@H](CC(N)=O)C(=O)N[C@@H](Cc1cc(I)c(Oc2ccc(O)c(I)c2)c(I)c1)C(=O)O [QHL-155-T3] ({Mal(CH2CH2O)6CH2CH2CO}-AA[dN][Thyronine(3,5,3'-I3)]-OH) | > 10000 |
| C[C@H](NC(=O)[C@H](C)NC(=O)[C@@H](CCC(=O)O)NC(=O)CCCCCN1C(=O)C=CC1=O)C(=O)N[C@@H](CC(N)=O)C(=O)N[C@H](Cc1cc(I)c(Oc2ccc(O)c(I)c2)c(I)c1)C(=O)O [QHL-161-T3] ({Hexanoyl(6-maleimido)}-[dE]AAN[X9]-OH) | > 10000 |
| C[C@H](NC(=O)[C@H](C)NC(=O)[C@@H](CC(=O)O)NC(=O)CCCCCN1C(=O)C=CC1=O)C(=O)NC(CC(N)=O)C(=O)N[C@H](Cc1cc(I)c(Oc2ccc(O)c(I)c2)c(I)c1)C(=O)O (stereo partly shown) [QHL-162-T3] ({Hexanoyl(6-maleimido)}-[dD]AA[ξN][X9]-OH) | > 10000 |
